The text below walks through data of publication PMC11199634.

The target of the test is LgBiT-PP1α, P62136. Kind of test: split-luciferase kinetic trace, competition with untagged SDS22. The conditions noted are these: chain shown with the change; 10 μM competitor added at t = 22 min; value read at the last time point (about 45 min); buffer control est. 160; parent: est. 83; read off a plot.
LgBiT-PP1α, P62136, sequence (P62136 whole entry): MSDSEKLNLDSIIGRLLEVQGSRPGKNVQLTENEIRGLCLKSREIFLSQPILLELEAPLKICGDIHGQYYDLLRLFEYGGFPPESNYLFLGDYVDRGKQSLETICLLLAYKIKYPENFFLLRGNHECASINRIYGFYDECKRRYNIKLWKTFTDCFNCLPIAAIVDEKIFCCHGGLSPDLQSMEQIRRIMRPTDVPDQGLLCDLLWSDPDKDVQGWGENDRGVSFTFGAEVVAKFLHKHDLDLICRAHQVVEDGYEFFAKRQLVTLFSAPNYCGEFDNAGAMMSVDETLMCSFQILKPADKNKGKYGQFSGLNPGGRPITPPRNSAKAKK

B1: SDS22 (tag-free, purified), Q15435 E192A (protein)
chain: MAAERGAGQQQSQEMMEVDRRVESEESGDEEGKKHSSGIVADLSEQSLKDGEERGEEDPEEEHELPVDMETINLDRDAEDVDLNHYRIGKIEGFEVLKKVKTLCLRQNLIKCIENLEELQSLRELDLYDNQIKKIENLEALTELEILDISFNLLRNIEGVDKLTRLKKLFLVNNKISKIENLSNLHQLQMLALGSNRIRAIENIDTLTNLESLFLGKNKITKLQNLDALTNLTVLSMQSNRLTKIEGLQNLVNLRELYLSHNGIEVIEGLENNNKLTMLDIASNRIKKIENISHLTELQEFWMNDNLLESWSDLDELKGARSLETVYLERNPLQKDPQYRRKVMLALPSVRQIDATFVRF
Regarding B1, the response (% of value at 22min) turned out to be 150.
